Data taken from the supplement of paper PMC10567573.

B1: FBXO3 (parent)
chain: FIDTYSDVGRYIDHYAAIKKAWDD

Variants of: B1
Assay: protein stability index of a GFP-peptide fusion (GPS, HEK-293T) (PSI 1-6); higher = more stable
Details: c terminus: a fixed tail appended
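Note: lentivirally expressed fusions sorted by FACS into six bins by GFP to DsRed ratio, PSI derived from sequencing read proportions per bin multiplied by bin number.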

Protein stability index: each site, then its substitutions
G9: A 1.62, Q 2.03, V 1.77, N 2.05, F 1.9, M 3.14, R 1.7, W 1.83, H 1.9
I12: S 1.32, V 2, R 2.27, K 1.76, F 2.09, C 2.21, Q 2.3, W 1.41, M 1.72, E 1.99, G 2.19, T 1.93, P 2.05
D3: R 1.91, V 2.63, W 1.92, A 2, L 2.3, C 1.57, Y 2.46, K 1.91, S 2.06, M 2.56, I 2.33, G 3.01, H 1.81, F 1.38
D7: W 2.67, G 2.33, A 1.21, V 2.43, P 2.16, K 2.19, L 1.93, H 1.63, T 1.68, Y 2.01, S 2.32, R 2.14, M 2.64, I 1.75, E 1.48
I18: T 2.24, C 1.94, K 2.41, W 1.74, G 2.38, Y 1.31, R 1.7, A 2.03, N 1.46, F 2.12, V 2.16, Q 1.54, E 1.97, S 2.13
A21: E 1.88, C 1.82, I 2.48, K 1.88, H 1.61, Y 1.85, V 1.22, M 3.02, W 1.7, S 2.12, P 1.97, D 3.43, G 3.18, F 1.96, T 2.23
T4: K 1.83, P 1.86, Y 1.82, R 2.12, A 2.41, L 1.89, Q 1.59, E 2.67, G 3.57, W 1.37, N 2.02, I 1.94, C 1.55, H 1.88, F 2.28, M 1.89
S6: H 2.06, I 2.14, F 1.6, L 2.17, A 1.97, T 1.65, M 1.77, Y 1.54, R 3.1, C 2.12, V 2.35, G 1.94, K 1.65, P 2.03, D 1.69, W 3.09
D23: M 2.56, C 2.82, L 1.61, W 3.21, T 1.97, K 1.7, R 1.72, V 1.48, I 3.3, P 2.1, F 1.87, Y 2.04, S 1.64, H 1.81, E 2.31
K20: H 1.7, S 1.54, I 2.59, V 1.44, Y 2.08, Q 1.68, M 2.49, D 1.74, F 2.08, N 2.76, L 1.54, R 1.67, G 1.81
A17: K 1.92, N 1.63, E 1.72, W 2, F 3.36, I 1.6, S 2.38, L 1.83, H 2.59, V 2.18, Q 1.62, R 1.98
K19: I 2.39, T 2.38, E 1.34, M 3.18, S 1.02, W 2.34, Q 2.07, H 2.68, D 2.46, P 1.74, G 1.91, Y 1.64, L 1.92, F 1.84, R 1.16, N 1.88
D24: H 2.7, G 1.61, P 2.28, Y 2.19, Q 2.39, T 2.51, M 1.82, K 1.58, F 1.67, C 1.32, S 1.44, L 1.79, R 1.99, V 2.6
W22: D 2.05, I 2.1, Q 1.26, T 1.95, R 1.86, M 1.64, A 2.05, S 1.75, P 1.69, N 1.68, F 1.39, G 1.85, H 2.02
A16: P 2.07, S 1.93, Q 1.81, L 2.01, I 1.71, G 2.44, D 1.6, M 1.25, N 1.12, K 2.04, T 1.42, E 1.89, Y 2.71, F 1.69, R 1.69
R10: A 1.6, Y 1.75, T 1.83, N 1.88, F 2.23, I 1.48, K 1.82, S 2.1, G 1.92, M 1.75, Q 2.58, E 2.56, V 2.86, P 1.78
Y15: A 1.93, I 2.15, Q 2.96, C 2.24, K 1.93, H 2.32, T 1.82, R 2.61, L 1.53, V 1.99, S 1.48
I2: G 3.01, S 3.14, P 3, A 2.45, K 3.03, L 2.39, M 2.41, N 3.21, D 3.65, C 2.4, Q 2.52, V 2.1, E 3.59, H 2.47
H14: W 1.87, C 2.31, G 2.11, T 1.71, Q 1.63, M 1.75, A 2.01, I 1.71, K 1.87, D 2.7, N 1.58, F 2.19, E 1.84
D13: R 1.3, K 2.1, H 2.06, M 2.07, E 1.32, I 2.88, C 1.77, Y 2.58, A 1.98, Q 2.7, T 1.5, L 2.24, S 1.84
V8: K 2.02, R 1.59, I 2.62, G 2.07, Y 1.81, M 2.03, E 2.32, L 1.92, F 1.79, N 2.2, D 3.07, A 1.79, W 1.62, C 1.9, H 1.82, Q 1.79
F1: E 3.21, S 3.64, N 3.57, A 3.39, W 2.58, K 2.47, M 2.79, Q 3.41, T 3.74, Y 2.09, D 3.74, R 3.09, P 3.62, H 3.58, L 3.22
Y11: M 1.85, L 1.42, W 2.39, A 1.82, D 1.78, H 1.78, R 2.37, S 2.2, N 2.25, P 2.24, C 1.66, V 1.93
Y5: W 2.27, G 2.21, V 2.47, I 2.05, C 2.84, R 2.45, H 2.13, E 2.8, D 2.9, A 2.25, Q 2.2, F 2.19, S 2.5, L 1.96, M 2.1, K 2.44
